Reference: patent publication US20050221381A1, “Method for isolating ligands” (priority 2002, published 2005)
Where two headings read alike, the source gives them in different places.

How the values were obtained:
[1] = target: T1, soluble DRB1*0401 molecules (DR4) (Homo sapiens, UniProt P01903+P01911, A100K/A169T/F76Y/I96L/K127E/L162R/M171V/N62H/P40V/Q125Y/R42H/S133A/S149N/S66Y/V115G/V209L/W38E); type: binding; design: key: +++: high binding affinity; ++: moderate binding affinity; +: low binding affinity; −: no binding; settings: individual pp65 15mer, SDS-stability assay
T1 construct: Soluble HLA class I A*0201 and HLA class II DRA1*0101/DRB1*0101/Ii, DRA1*0101/DRB1*0401/Ii and DRA1*0101/DRB1*0404/Ii molecules were expressed in SC-2 cells; made in house; host or cells: SC-2 cells

[2] = target: T2, soluble DRB1*0404 molecules (Homo sapiens, UniProt P01903+P01911, A100R/A169T/F76Y/I96L/K127E/L162R/M171V/N62H/P40V/Q125Y/R42H/S133A/S149N/S66Y/V209L/W38E); test: Peptide binding assay, SDS-stability assay; design: key: +++: high binding affinity; ++: moderate binding affinity; +: low binding affinity; −: no binding; settings: individual pp65 15mer
T2 construct: Soluble HLA class I A*0201 and HLA class II DRA1*0101/DRB1*0101/Ii, DRA1*0101/DRB1*0401/Ii and DRA1*0101/DRB1*0404/Ii molecules were expressed in SC-2 cells; made in house; host or cells: SC-2 cells

[3] = target: T3, soluble DRB1*0101 molecules (Homo sapiens, UniProt P01903+P01911, A100R/D57E/F55L/F60I/F76Y/I96L/L162R/M171V/P40L/Q125E/R42F/V115G/Y59C); test: Peptide binding assay, SDS-stability assay; design: key: +++: high binding affinity; ++: moderate binding affinity; +: low binding affinity; −: no binding; settings: individual pp65 15mer
T3 construct: Soluble HLA class I A*0201 and HLA class II DRA1*0101/DRB1*0101/Ii, DRA1*0101/DRB1*0401/Ii and DRA1*0101/DRB1*0404/Ii molecules were expressed in SC-2 cells; made in house; host or cells: SC-2 cells

[4] = tested on: PBMC from CMV seropositive donors; type: cell-based, human
[5] = target: T1, soluble DRB1*0401 molecules (DR4); type: binding; design: key: −: no binding; +/−: weak binding; +: intermediate binding; ++: strong binding; settings: individual pp65 15mer, SDS-stability assay
[6] = target: T1, soluble DRB1*0401 molecules (DR4); type: binding; design: key to Binding to DRB1 *0401: −: no binding/T cell response; +/−: weak binding/T cell response; +: intermediate binding/T cell response; ++: strong binding/T cell response; settings: soluble DRB1*0401 molecules
DRB1*1101 = DRB1*1101 (Homo sapiens, UniProt P01903+P01911, A100R/A169T/A87E/I96F/K41T/L162R/M171V/P40S/Q125H/Q178H/Q39Y/Q99D/R42S/S66Y/T262R/V115G/W38E); test: Peptide-competition assay with biotinylated CLIP peptide (ELISA); type: binding; design: key: −: no binding/T cell response; +/−: weak binding/T cell response; +: intermediate binding/T cell response; ++: strong binding/T cell response; settings: DRB1*1101
Protocol: (§1) The binding affinities to DRB1*0701 and DRB1*1101 were tested by a peptide-competition assay (Reay et al., 1992). Briefly, binding of the biotinylated CLIP peptide (reference peptide) has been used for monitoring of HLA:peptide complex formation. […] In the case of lower affinity peptides they should be added in excess to the reference peptide to compete for occupancy of HLA binding grove. […] Alternatively, comparing of the amount of reference peptide bound to HLA molecules in the presence or absence of competitor peptide one can determine the binding activity of the peptide of interest.
(§2) In the present peptide-competition assay conditions of peptide binding were similar to described above. Soluble HLA molecules were used in the concentration of 0.5 μM and biotinylated CLIP was added to all samples in the final concentration of 2 μM. Competitor peptides were added in three different concentrations: 0.25, 5 and 100 μM. Binding reaction was performed in PBS buffer (pH 7.4) for 18 hours at 37° C. […] Briefly, MaxiSorb 96-well plates (Nunc, Denmark) were coated with mouse anti-αβ antibody L243 (purified from ATCC HB-55) by overnight incubation with 50 μl of 10 μg/ml dilution in PBS at 4° C. Non-specific binding to the plastic was blocked by incubation with T-PBS containing 3% of BSA for 2 hours at 37° C. and binding reactions were then “captured” for 2 hours at room temperature. […] The optical density at 405 nm was measured on a microplate reader SUNRISE (Tecan).

DRB1*0701 = DRB1*0701 (Homo sapiens, UniProt P01903+P01911, A100R/A102G/A103Q/D57E/D86V/E43K/F76Y/K127E/L162R/M171V/P40G/Q125H/Q99D/R33Q/R42Y/R54Q/S133A/S66F/T210M/V115G/Y107V/Y59L/Y89S); test: as above; type: binding; design: key: −: no binding/T cell response; +/−: weak binding/T cell response; +: intermediate binding/T cell response; ++: strong binding/T cell response; settings: DRB1*0701
Protocol: as §1, §2

[7] = tested on: HLA-DRB1*0401-transgenic mice splenocytes; type: in vivo, mouse; design: key to DRB1*0401 mice total SC (T cell response) / DRB1*0401 mice CD4+ (T cell response): −: no binding/T cell response; +/−: weak binding/T cell response; +: intermediate binding/T cell response; ++: strong binding/T cell response
[8] = target: T2, soluble DRB1*0404 molecules; test: Peptide binding assay, SDS-stability assay; design: key: −: no binding/T cell response; +/−: weak binding/T cell response; +: intermediate binding/T cell response; ++: strong binding/T cell response; settings: soluble DRB1*0404 molecules
[9] = target: T3, soluble DRB1*0101 molecules; test: Peptide binding assay, SDS-stability assay; design: key: −: no binding/T cell response; +/−: weak binding/T cell response; +: intermediate binding/T cell response; ++: strong binding/T cell response; settings: soluble DRB1*0101 molecules
CD4+ T cells = settings: healthy, CMV-exposed human subjects; partially or fully identical sequences; cited from earlier work
[10] = tested on: PBMC (CD4 and CD8 positive T-cell compartments); test: Intracellular IFN-γ staining combined with surface staining for CD4, CD8, CD69 (FACS); type: cell-based, human; settings: donor 10687, peptide 80 μg/ml (FIG. 11)
Protocol: To distinguish between CD8-positive CTL mediated or CD4-positive HTL mediated reactivity, intracellular cytokine staining combined with staining for surface markers was performed: after thawing, PBMNC were kept overnight (37° C., 5% CO2) in RPMI1640 with 10% human serum type AB (BioWhittaker). Next day aliquots of 2 million PBMNC were incubated with peptide (80 μg/ml) or Concanavalin A (SIGMA). After 1 h, 10 μg/ml brefeldin A (SIGMA) were added and incubation was continued for 5 hours. Surface staining for CD4 (phycoerythrin), CD8 (cychrome), CD69 (allophycocyanine) was done with antibodies labelled as indicated (Pharmingen, San Diego, Calif., USA). After fixation with 1% para-formaldehyde in PBS, cells were permeabilized by incubating for 15 min in 0.5% BSA/0.1% Na-azide/0.1% saponin in PBS. Intracellular cytokines were stained with anti-IFN-γ (FITC) antibody 4S.B3 (Pharmingen). Samples (100,000 events in the lymphocyte gate) were read on a FACScalibur (Becton Dickinson).
FIG. 11: Confirmation of simultaneous CD4+ and CD8+ T-cell responses against CMVpp65 15mers 469, 470 by intracellular IFN-γ staining. PBMC from 2 donors (10687, 10788) were stimulated with either ConA as positive control (1st column), 15mers containing both putative class I and class II epitopes (columns 2 and 3) or medium as negative control (right column). Cells were stained for intracellular IFN-γ (x-axis) or surface the T-cell differentiation markers CD4 or CD8 (y-axis). Percentage in upper-right quadrant is indicated, numbers significant over background are shown boldface.

[11] = tested on: DRB1*0401, DRB1*0101, DRB1*0404, DRB1*0701 and DRB1*1101; test: Binding to soluble HLA molecules of different allels (promiscuity); design: species or system human
Protocol: In peptide binding reactions HLA molecules were used in a concentration of 0.5 μM, and each single peptide was added in 10-fold molar excess (5 μM) if not mentioned differently. […] The reaction was performed in PBS buffer (pH 7.4) at room temperature for 48 hours in the presence of a protease inhibitor cocktail (Roche) and 0.1% octyl-b-D-glucopyranoside (Sigma).
Peptide binding was evaluated in an SDS-stability assay (Gorga et al., 1987): trimeric HLA class II ab-peptide complexes are resistant to SDS and consequently appear as ˜60 kDa band in SDS-PAGE Western blot analysis. Individual HLA class II α and β chains not stabilized by a peptide binding with intermediate to high affinity migrate as ˜35 kDa and ˜30 kDa bands, respectively.
as §1, §2
Some of the identified DRB1*0401 binding peptides, as well as others chosen by prediction algorithms were also tested for binding to soluble HLA molecules of different allels: DRB1*0101, DRB1*0404, DRB1*0701 and DRB1*1101 (Table 3).

[12] = IFN-gamma ELISpot, enriched CD4+ fraction of splenocytes of HLA-DR4 transgenic mice vaccinated with the longer peptide, ex vivo re-stimulation
[13] = IFN-gamma ELISpot, total splenocytes of HLA-DR4 transgenic mice vaccinated with the longer peptide, ex vivo re-stimulation

Sequence: TDEDSDNEIHNPAVF [Peptide 468]
- Binding to DRB1*0401 [1]: −
- Binding to DRB1*0404 [2]: −

Sequence: IYVYALPLKMLNIPS [Peptide 111]
- Binding to DRB1*0101 [3]: −
- Binding to DRB1*0401 [1]: −

Sequence: GGAIAGASTSAGRKR [Peptide 423]
- Induction of IFN-gamma secretion in T cells / PBMC from CMV seropositive donors [4]: can induce functional, IFN-gamma secreting T cells in humans
- Binding to DRB1*0401 [1]: −
- Binding to DRB1*0404 [2]: −

Sequence: NLKYQEFFWDANDIY [Peptide 507]
- Binding to DRB1*0401 [5]: +/−
- Binding to DRB1 *0401 [6]: +/−
- Binding to DRB1 1101 (DRB1*1101): −
- Binding to DRB1 *0701 (DRB1*0701): −
- DRB1*0401 mice CD4+ (T cell response) [7, 12]: +
- DRB1*0401 mice total SC (T cell response) [7, 13]: ++
- Binding to DRB1*0404 [8]: −
- Binding to DRB1*0101 [9]: −
- Specific CD4+ T cells response described earlier (CD4+ T cells): capable to evoke specific CD4+ T cells response

Sequence: LKYQEFFWDANDIYR [Peptide 508]
- Binding to DRB1*0401 [5]: +/−
- Binding to DRB1 *0401 [6]: +/−
- DRB1*0401 mice CD4+ (T cell response) [7, 12]: ++
- DRB1*0401 mice total SC (T cell response) [7, 13]: ++
- Specific CD4+ T cells response described earlier (CD4+ T cells): capable to evoke specific CD4+ T cells response

Sequence: EPMSIYVYALPLKML [Peptide 107]
- Binding to DRB1*0101 [3]: −
- Binding to DRB1*0401 [1]: −

Sequence: AGILARNLVPMVATV [Peptide 489]
- Intracellular IFN-γ in CD4 and CD8 positive T-cell compartments [10]: only CD8 mediated IFN-γ secretion

Sequence: EPDVYYTSAFVFPTK [Peptide 177]
- Binding to DRB1*0401 [5]: +
- Binding to DRB1 *0401 [6]: +
- Affinity for several HLA molecules (promiscuity) [11]: affinity for at least two HLA molecules
- Binding to DRB1 1101 (DRB1*1101): +
- Binding to DRB1 *0701 (DRB1*0701): −
- DRB1*0401 mice CD4+ (T cell response) [7, 12]: +
- DRB1*0401 mice total SC (T cell response) [7, 13]: +
- Binding to DRB1*0404 [8]: −
- Binding to DRB1*0101 [9]: ++
- Specific CD4+ T cells response described earlier (CD4+ T cells): capable to evoke specific CD4+ T cells response

Sequence: KEPDVYYTSAFVFPT [Peptide 176]
- Binding to DRB1*0401 [5]: +/−
- Binding to DRB1*0101 [3]: −
- Binding to DRB1 *0401 [6]: +/−
- DRB1*0401 mice CD4+ (T cell response) [7, 12]: +
- DRB1*0401 mice total SC (T cell response) [7, 13]: +

Sequence: QWKEPDVYYTSAFVF [Peptide 174]
- Binding to DRB1*0101 [3]: −
- Binding to DRB1 *0401 [6]: −
- Binding to DRB1*0401 [1]: −
- DRB1*0401 mice CD4+ (T cell response) [7, 12]: +/−
- DRB1*0401 mice total SC (T cell response) [7, 13]: +/−

Sequence: PQYSEHPTFTSQYRI [Peptide 361]
- DRB1*0401 mice CD4+ (T cell response) ([7]; mouse, in vivo): ++
- DRB1*0401 mice total SC (T cell response) ([7]; mouse, in vivo, sc): +
- Specific CD4+ T cells response described earlier (CD4+ T cells): capable to evoke specific CD4+ T cells response
